T1: FVa (FVa2) (Homo sapiens, UniProt P12259)
T1 chain 1: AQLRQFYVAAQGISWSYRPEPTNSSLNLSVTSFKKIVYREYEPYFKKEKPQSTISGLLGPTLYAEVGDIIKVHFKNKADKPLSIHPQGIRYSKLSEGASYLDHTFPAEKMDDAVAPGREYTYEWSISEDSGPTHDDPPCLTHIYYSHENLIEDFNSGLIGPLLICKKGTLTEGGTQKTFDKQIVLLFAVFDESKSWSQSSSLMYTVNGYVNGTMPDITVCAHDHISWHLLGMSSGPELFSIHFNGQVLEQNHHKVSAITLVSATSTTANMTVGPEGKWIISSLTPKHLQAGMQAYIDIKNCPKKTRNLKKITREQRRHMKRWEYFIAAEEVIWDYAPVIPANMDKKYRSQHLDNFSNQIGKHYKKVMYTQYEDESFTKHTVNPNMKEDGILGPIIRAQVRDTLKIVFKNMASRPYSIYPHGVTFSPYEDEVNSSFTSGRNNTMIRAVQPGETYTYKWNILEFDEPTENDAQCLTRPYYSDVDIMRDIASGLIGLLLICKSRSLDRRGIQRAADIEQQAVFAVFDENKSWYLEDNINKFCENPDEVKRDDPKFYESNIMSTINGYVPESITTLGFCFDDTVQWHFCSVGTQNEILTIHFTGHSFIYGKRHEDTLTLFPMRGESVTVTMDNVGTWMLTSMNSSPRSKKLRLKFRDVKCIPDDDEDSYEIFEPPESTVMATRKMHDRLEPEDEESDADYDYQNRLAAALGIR
T1 chain 2: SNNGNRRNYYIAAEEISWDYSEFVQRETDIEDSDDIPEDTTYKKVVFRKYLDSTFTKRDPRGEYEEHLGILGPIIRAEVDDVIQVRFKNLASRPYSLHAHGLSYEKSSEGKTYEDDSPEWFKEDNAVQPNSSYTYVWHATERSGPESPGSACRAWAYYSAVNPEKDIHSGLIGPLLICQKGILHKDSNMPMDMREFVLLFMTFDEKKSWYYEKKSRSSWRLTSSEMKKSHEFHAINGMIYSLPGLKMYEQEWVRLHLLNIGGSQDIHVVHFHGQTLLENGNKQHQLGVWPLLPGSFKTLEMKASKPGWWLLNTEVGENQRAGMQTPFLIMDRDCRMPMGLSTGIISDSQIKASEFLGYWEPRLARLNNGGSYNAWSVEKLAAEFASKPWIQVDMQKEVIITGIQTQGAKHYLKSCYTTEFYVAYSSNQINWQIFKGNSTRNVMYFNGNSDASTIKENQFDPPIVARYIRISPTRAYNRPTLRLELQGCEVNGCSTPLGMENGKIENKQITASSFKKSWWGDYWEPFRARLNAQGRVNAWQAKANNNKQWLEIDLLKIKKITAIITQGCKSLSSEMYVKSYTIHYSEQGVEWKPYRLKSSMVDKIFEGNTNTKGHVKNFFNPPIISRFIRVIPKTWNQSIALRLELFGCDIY

T2: FXa (Homo sapiens, UniProt P00742)
T2 chain 1: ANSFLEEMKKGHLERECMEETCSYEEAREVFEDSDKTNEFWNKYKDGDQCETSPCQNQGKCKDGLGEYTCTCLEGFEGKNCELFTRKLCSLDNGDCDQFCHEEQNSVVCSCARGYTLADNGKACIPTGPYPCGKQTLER
T2 chain 2: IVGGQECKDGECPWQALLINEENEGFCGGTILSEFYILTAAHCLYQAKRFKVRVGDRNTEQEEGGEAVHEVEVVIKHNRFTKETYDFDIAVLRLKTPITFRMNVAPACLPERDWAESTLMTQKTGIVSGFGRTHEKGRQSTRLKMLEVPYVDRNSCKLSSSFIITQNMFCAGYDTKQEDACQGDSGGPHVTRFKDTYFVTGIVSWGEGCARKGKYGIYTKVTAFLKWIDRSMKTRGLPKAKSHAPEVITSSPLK

T3: DEGR-FXa (Homo sapiens, UniProt P00742)
T3 chain 1: T2 chain 1
T3 chain 2: T2 chain 2

B1: FXa (protein)
chain 1: T2 chain 1
chain 2: T2 chain 2
modifications: C6PS, 5 mM Ca2+
B2: FXa (protein)
chain 1: T2 chain 1
chain 2: T2 chain 2
modifications: C6PS, 3 mM Ca2+
B3: DEGR-FXa (protein)
chain 1: T2 chain 1
chain 2: T2 chain 2
modifications: DEGR active-site label, C6PS, 3 mM Ca2+

Legend:
FVa (FVa2) [1] = biological target: T1, FVa (FVa2); assay: prothrombinase activity titration
FVa (FVa2) [2] = biological target: T1, FVa (FVa2); assay: prothrombinase activity titration
FVa (FVa2) [3] = biological target: T1, FVa (FVa2); assay: global fit of activity, dimer competition model
FXa = biological target: T2, FXa; assay: prothrombin activation rate vs FXa
FVa (FVa2) [4] = biological target: T1, FVa (FVa2); assay: global fit of activity
FVa (FVa2) [5] = biological target: T1, FVa (FVa2); assay: prothrombinase activity titration
DEGR-FXa = biological target: T3, DEGR-FXa; assay: fluorescence of active-site-labeled FXa

Binder | Kd (FVa (FVa2) [1]) [nM] | Kd (FVa (FVa2) [2]) [nM] | Kd (FVa (FVa2) [3]) [nM] | Kd (FXa) [nM] | Kd (FVa (FVa2) [4]) [nM] | Kd (FVa (FVa2) [5]) [nM] | Kd (DEGR-FXa) [nM]
B1 | 20 | 43 | 0.32 | 16 | 0.43 | 2.2 | –
B2 | – | 8 | – | – | – | 1.7 | –
B3 | – | – | – | – | – | – | 600

— paper PMC3544317 (2014)
